Measurements reported in patent publication US20220162306A1.
“And” between values parts separate entries of the source, which are not always exact repeats. Equal values may be shown once.

Tests used:
[1] = molecular target: CD32B (Fc gamma receptor IIb) (human) (UniProt P31994); test: cell-based or functional assay
[2] = molecular target: receptors on circulating human B cells (CD32B and CD79B, the two targets of PRV-3279)
[3] = molecular target: receptors on circulating human B cells (CD32B and CD79B, the two targets of PRV-3279); test: receptor occupancy on circulating B cells of dosed healthy subjects (FIG. 3B)

Chain of CD32B (Fc gamma receptor IIb) (human) (P31994 43-310): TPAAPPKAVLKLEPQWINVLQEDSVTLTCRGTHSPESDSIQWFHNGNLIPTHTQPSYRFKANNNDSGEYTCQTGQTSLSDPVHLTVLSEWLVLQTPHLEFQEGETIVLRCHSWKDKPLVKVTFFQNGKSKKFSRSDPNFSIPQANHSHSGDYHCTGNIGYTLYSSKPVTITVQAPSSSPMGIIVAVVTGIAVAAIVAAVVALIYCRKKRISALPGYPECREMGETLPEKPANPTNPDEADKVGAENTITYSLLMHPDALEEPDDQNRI

In the case of “PRV-3279, a humanized CD32B×CD79B DART® protein (bispecific antibody)”, the inhibition of anti-human IgM stimulated B-cell proliferation (3H-thymidine incorporation), 100 nM PRV-3279, B cells of SLE patients with active or inactive disease [1] is reported as 60%, the inhibition of anti-human IgM stimulated B-cell proliferation (3H-thymidine incorporation), 100 nM PRV-3279, B cells of normal healthy volunteers and SLE patients [1] is reported as 60% and the percent of available CD19+ B cells bound [2] is reported as > 85%. The receptor occupancy [2] was > 50% and the percent of receptors occupied [3] was 70% and 75%.
